Experimental findings from US20200317768A1 (published 2020) are described below.

In assay [1] the target is T1, soluble mouse FcγRII, His-tagged (mouse, UniProt P08101 30-210, limits assumed).
T1 construct: Captured on the chip by an anti-His antibody
T1 sequence (looked up): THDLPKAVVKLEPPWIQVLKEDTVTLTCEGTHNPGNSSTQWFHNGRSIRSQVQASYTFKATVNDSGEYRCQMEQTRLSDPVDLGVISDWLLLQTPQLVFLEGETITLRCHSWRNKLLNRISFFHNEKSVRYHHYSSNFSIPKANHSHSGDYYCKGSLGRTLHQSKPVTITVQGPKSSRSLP
Briefly: SPR, mouse FcgRII-His captured, antigen-antibody complex injected, pH7.4, 25C. The procedure: Regarding the produced Fc region variant-containing antibodies, binding assays between soluble mouse FcγRII and antigen-antibody complexes were performed using BIACORE® T200 (GE Healthcare). Soluble mouse FcγRII was produced in the form of a His-tagged molecule by a method known to those skilled in the art. An appropriate amount of an anti-His antibody was fixed onto Sensor chip CM5 (GE Healthcare) by the amine coupling method using a His capture kit (GE Healthcare) to capture mouse FcγRII. Next, an antibody-antigen complex and a running buffer (as a reference solution) were injected, and interaction was allowed to take place with the mouse FcγRII captured onto the sensor chip. 20 mM N-(2-Acetamido)-2-aminoethanesulfonic acid, 150 mM NaCl, 1.2 mM CaCl₂, and 0.05% (w/v) TWEEN, 20 at pH7.4 was used as the running buffer, and the respective buffer was also used to dilute the soluble mouse FcγRII. To regenerate the sensor chip, 10 mM glycine-HCl at pH1.5 was used. All measurements were carried out at 25° C. […] To calculate the parameters, the BIACORE® T100 Evaluation Software (GE Healthcare) was used.

The target of assay [2] is T2, human FcγRIIb constitutively expressed on MDCK cells (human, UniProt P31994 43-310).
T2 sequence (looked up): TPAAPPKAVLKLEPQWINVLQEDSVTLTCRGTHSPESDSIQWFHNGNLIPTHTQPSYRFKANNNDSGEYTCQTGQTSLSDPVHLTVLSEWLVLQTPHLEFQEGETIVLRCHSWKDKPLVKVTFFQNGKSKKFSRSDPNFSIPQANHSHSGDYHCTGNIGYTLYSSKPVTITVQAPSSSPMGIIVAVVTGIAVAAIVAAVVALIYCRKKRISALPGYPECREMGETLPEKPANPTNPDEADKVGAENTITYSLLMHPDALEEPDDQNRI
The assay can be described thus: cell-based or functional assay.

B1: M103205H795-P1549m/M103202L889-SK1 (antibody, human IgG1, kappa)
heavy: QVTLKESGPVLVKPTETLTLTCTVSGIDLSHDDISWVRQAPGKGLEWVGIISYAGSTYYASWAKGRLTISKDTSKNQVVLTMTNMDPVDTATYYCARGVPAYSHGGDLWGQGTLVTVSSASTKGPSVFPLAPSSKSTSGGTAALGCLVKDYFPEPVTVSWNSGALTSGVHTFPAVLQSSGLYSLSSVVTVPSSSLGTQTYICNVNHKPSNTKVDKKVEPKSCDKTHTCPPCPAPELLGGPSVFLFPPKPKDTLMISRTPEVTCVVVDVSHEDPEVKFNWYVDGVEVHNAKTKPREEQYNSTYRVVSVLTVLHRDWLNGKEYKCKVSNKALPAPIEKTISKAKGQPREPQVYTLPPSREEMTKNQVSLTCLVKGFYPSDIAVEWESNRQPENNYKTTPPVLDSDRSFFLYSKLTVDKSRWQQGNVFSCSVMHEALHNHYTQKSLSLSP
light: DIVMTQSPATLSLSPGERATLSCTSSQSVYHANWLSWFQQKPGQPPKLLIYWASTLAYGVPSRFSGSGSGTDFTLTISSLQPEDAATYYCAGGYGGGRYAFGQGTKVEIKRTVAAPSVFIFPPSDEQLKSGTASVVCLLNNFYPREAKVQWKVDNALQSGNSQESVTEQDSKDSTYSLSSTLTLSKADYEKHKVYACEVTHQGLSSPVTKSFNRGEC
As for B1, in assay [1], the “biacore IC binding” value is 1.22 relative to SG1 (=1.00). In assay [2], the celluar uptake is 2.03 relative to SG1 (=1.00).

B2: M103205H795-P1550m/M103202L889-SK1 (antibody, human IgG1, kappa)
heavy: QVTLKESGPVLVKPTETLTLTCTVSGIDLSHDDISWVRQAPGKGLEWVGIISYAGSTYYASWAKGRLTISKDTSKNQVVLTMTNMDPVDTATYYCARGVPAYSHGGDLWGQGTLVTVSSASTKGPSVFPLAPSSKSTSGGTAALGCLVKDYFPEPVTVSWNSGALTSGVHTFPAVLQSSGLYSLSSVVTVPSSSLGTQTYICNVNHKPSNTKVDKKVEPKSCDKTHTCPPCPAPELLGGPSVFLFPPKPKDTLMISRTPEVTCVVVDVSHEDPEVKFNWYVDGVEVHNAKTKPREEQYNSTYRVVSVLTVLHRDWLNGKEYKCKVSNKALPAPIEKTISKAKGQPREPQVYTLPPSREEMTKNQVSLTCLVKGFYPSDIAVEWESNGQPRNNYKTTPPVLDSRGSFFLYSKLTVDKSRWQQGNVFSCSVMHEALHNHYTQKSLSLSP
light: DIVMTQSPATLSLSPGERATLSCTSSQSVYHANWLSWFQQKPGQPPKLLIYWASTLAYGVPSRFSGSGSGTDFTLTISSLQPEDAATYYCAGGYGGGRYAFGQGTKVEIKRTVAAPSVFIFPPSDEQLKSGTASVVCLLNNFYPREAKVQWKVDNALQSGNSQESVTEQDSKDSTYSLSSTLTLSKADYEKHKVYACEVTHQGLSSPVTKSFNRGEC
In the case of B2, the “biacore IC binding” value in assay [1] is 1.63 relative to SG1 (=1.00). Further, the celluar uptake in assay [2] was 6.43 relative to SG1 (=1.00).

B3: M103205H795-P1552m/M103202L889-SK1 (antibody, human IgG1, kappa)
heavy: QVTLKESGPVLVKPTETLTLTCTVSGIDLSHDDISWVRQAPGKGLEWVGIISYAGSTYYASWAKGRLTISKDTSKNQVVLTMTNMDPVDTATYYCARGVPAYSHGGDLWGQGTLVTVSSASTKGPSVFPLAPSSKSTSGGTAALGCLVKDYFPEPVTVSWNSGALTSGVHTFPAVLQSSGLYSLSSVVTVPSSSLGTQTYICNVNHKPSNTKVDKKVEPKSCDKTHTCPPCPAPELLGGPSVFLFPPKPKDTLMISRTPEVTCVVVDVSHEDPEVKFNWYVDGVEVHNAKTKPREEQYNSTYRVVSVLTVLHQDWLNGKEYKCKVSNKALPAPIEKTISKAKGQPREPQVYTLPPSREEMTKNQVSLTCLVKGFYPSDIAVEWESNRQPENNYKTTPPVLDSRGSFFLYSKLTVKKSRWQQGNVFSCSVMHEALHNHYTQKSLSLSP
light: DIVMTQSPATLSLSPGERATLSCTSSQSVYHANWLSWFQQKPGQPPKLLIYWASTLAYGVPSRFSGSGSGTDFTLTISSLQPEDAATYYCAGGYGGGRYAFGQGTKVEIKRTVAAPSVFIFPPSDEQLKSGTASVVCLLNNFYPREAKVQWKVDNALQSGNSQESVTEQDSKDSTYSLSSTLTLSKADYEKHKVYACEVTHQGLSSPVTKSFNRGEC
As for B3, the “biacore IC binding” value in assay [1] is 2.19 relative to SG1 (=1.00). For the same molecule, in assay [2], the celluar uptake is 4.44 relative to SG1 (=1.00).

B4: M103205H795-P1555m/M103202L889-SK1 (antibody, human IgG1, kappa)
heavy: QVTLKESGPVLVKPTETLTLTCTVSGIDLSHDDISWVRQAPGKGLEWVGIISYAGSTYYASWAKGRLTISKDTSKNQVVLTMTNMDPVDTATYYCARGVPAYSHGGDLWGQGTLVTVSSASTKGPSVFPLAPSSKSTSGGTAALGCLVKDYFPEPVTVSWNSGALTSGVHTFPAVLQSSGLYSLSSVVTVPSSSLGTQTYICNVNHKPSNTKVDKKVEPKSCDKTHTCPPCPAPELLGGPSVFLFPPKPKDTLMISRTPEVTCVVVDVSHEDPEVKFNWYVDGVEVHNAKTKPREEQYNSTYRVVSVLTVLHQDWLNGKEYKCKVSNKALPAPIEKTISKAKGQPREPQVYTLPPSREEMTKNQVSLTCLVKGFYPSDIAVEWESNGQPRNNYKTTPPVLDSDRSFFLYSKLTVKKSRWQQGNVFSCSVMHEALHNHYTQKSLSLSP
light: DIVMTQSPATLSLSPGERATLSCTSSQSVYHANWLSWFQQKPGQPPKLLIYWASTLAYGVPSRFSGSGSGTDFTLTISSLQPEDAATYYCAGGYGGGRYAFGQGTKVEIKRTVAAPSVFIFPPSDEQLKSGTASVVCLLNNFYPREAKVQWKVDNALQSGNSQESVTEQDSKDSTYSLSSTLTLSKADYEKHKVYACEVTHQGLSSPVTKSFNRGEC
Take B4: in assay [1], the “biacore IC binding” value was 2.01 relative to SG1 (=1.00). Further, in assay [2], the celluar uptake is 3.71 relative to SG1 (=1.00).

B5: M103205H795-P1551m/M103202L889-SK1 (antibody, human IgG1, kappa)
heavy: QVTLKESGPVLVKPTETLTLTCTVSGIDLSHDDISWVRQAPGKGLEWVGIISYAGSTYYASWAKGRLTISKDTSKNQVVLTMTNMDPVDTATYYCARGVPAYSHGGDLWGQGTLVTVSSASTKGPSVFPLAPSSKSTSGGTAALGCLVKDYFPEPVTVSWNSGALTSGVHTFPAVLQSSGLYSLSSVVTVPSSSLGTQTYICNVNHKPSNTKVDKKVEPKSCDKTHTCPPCPAPELLGGPSVFLFPPKPKDTLMISRTPEVTCVVVDVSHEDPEVKFNWYVDGVEVHNAKTKPREEQYNSTYRVVSVLTVLHRDWLNGKEYKCKVSNKALPAPIEKTISKAKGQPREPQVYTLPPSREEMTKNQVSLTCLVKGFYPSDIAVEWESNGQPRNNYKTTPPVLDSDRSFFLYSKLTVDKSRWQQGNVFSCSVMHEALHNHYTQKSLSLSP
light: DIVMTQSPATLSLSPGERATLSCTSSQSVYHANWLSWFQQKPGQPPKLLIYWASTLAYGVPSRFSGSGSGTDFTLTISSLQPEDAATYYCAGGYGGGRYAFGQGTKVEIKRTVAAPSVFIFPPSDEQLKSGTASVVCLLNNFYPREAKVQWKVDNALQSGNSQESVTEQDSKDSTYSLSSTLTLSKADYEKHKVYACEVTHQGLSSPVTKSFNRGEC
In the case of B5, in assay [1], the “biacore IC binding” value was 1.33 relative to SG1 (=1.00). Moreover, in assay [2], the celluar uptake was 2.91 relative to SG1 (=1.00).

B6: M103205H795-SG141/M103202L889-SK1 (antibody, human IgG1, kappa)
heavy: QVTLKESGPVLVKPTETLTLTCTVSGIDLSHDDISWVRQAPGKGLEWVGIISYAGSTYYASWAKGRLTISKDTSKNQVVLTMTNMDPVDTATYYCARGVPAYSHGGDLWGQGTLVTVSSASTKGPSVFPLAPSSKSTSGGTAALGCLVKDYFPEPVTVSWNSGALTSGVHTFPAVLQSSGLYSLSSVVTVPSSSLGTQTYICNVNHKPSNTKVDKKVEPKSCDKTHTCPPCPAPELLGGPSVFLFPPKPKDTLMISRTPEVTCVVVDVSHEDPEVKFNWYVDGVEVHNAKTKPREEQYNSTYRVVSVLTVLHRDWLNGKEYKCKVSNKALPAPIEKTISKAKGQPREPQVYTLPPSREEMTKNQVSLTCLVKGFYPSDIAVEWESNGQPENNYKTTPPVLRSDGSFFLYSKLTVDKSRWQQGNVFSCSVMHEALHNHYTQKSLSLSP
light: DIVMTQSPATLSLSPGERATLSCTSSQSVYHANWLSWFQQKPGQPPKLLIYWASTLAYGVPSRFSGSGSGTDFTLTISSLQPEDAATYYCAGGYGGGRYAFGQGTKVEIKRTVAAPSVFIFPPSDEQLKSGTASVVCLLNNFYPREAKVQWKVDNALQSGNSQESVTEQDSKDSTYSLSSTLTLSKADYEKHKVYACEVTHQGLSSPVTKSFNRGEC
Consider B6, for which, in assay [1], the “biacore IC binding” value is 1.64 relative to SG1 (=1.00). Moreover, in assay [2], the celluar uptake is 4.42 relative to SG1 (=1.00).

B7: M103205H795-P1553m/M103202L889-SK1 (antibody, human IgG1, kappa)
heavy: QVTLKESGPVLVKPTETLTLTCTVSGIDLSHDDISWVRQAPGKGLEWVGIISYAGSTYYASWAKGRLTISKDTSKNQVVLTMTNMDPVDTATYYCARGVPAYSHGGDLWGQGTLVTVSSASTKGPSVFPLAPSSKSTSGGTAALGCLVKDYFPEPVTVSWNSGALTSGVHTFPAVLQSSGLYSLSSVVTVPSSSLGTQTYICNVNHKPSNTKVDKKVEPKSCDKTHTCPPCPAPELLGGPSVFLFPPKPKDTLMISRTPEVTCVVVDVSHEDPEVKFNWYVDGVEVHNAKTKPREEQYNSTYRVVSVLTVLHQDWLNGKEYKCKVSNKALPAPIEKTISKAKGQPREPQVYTLPPSREEMTKNQVSLTCLVKGFYPSDIAVEWESNRQPENNYKTTPPVLDSDRSFFLYSKLTVKKSRWQQGNVFSCSVMHEALHNHYTQKSLSLSP
light: DIVMTQSPATLSLSPGERATLSCTSSQSVYHANWLSWFQQKPGQPPKLLIYWASTLAYGVPSRFSGSGSGTDFTLTISSLQPEDAATYYCAGGYGGGRYAFGQGTKVEIKRTVAAPSVFIFPPSDEQLKSGTASVVCLLNNFYPREAKVQWKVDNALQSGNSQESVTEQDSKDSTYSLSSTLTLSKADYEKHKVYACEVTHQGLSSPVTKSFNRGEC
For the molecule B7, in assay [1], the “biacore IC binding” value was 1.47 relative to SG1 (=1.00). The celluar uptake in assay [2] was 2.86 relative to SG1 (=1.00).
